Assay results reported in patent US6117653.

Columns and labels:
Assay in all cases: ELISA of pooled CsCl fractions 9-15 of the purified particle
[1] = target: purified HBs antigen particle produced from an HBV sequence construct including the pre-S1 region with total deletion of pre-S2 and deletions upstream of the pre-S2 ATG and the S region with deletion of the S ATG (e.g., the construct of FIG. 6B) (Hepatitis B virus (subtype not stated for the construct); Hepatitis B virus (subtype not stated))
[2] = target: purified HBs antigen particle produced from an HBV sequence construct including the pre-S1 region with total deletion of pre-S2 and deletions upstream of the pre-S2 ATG and the S region with deletion of the S ATG and downstream the S ATG through the XBaI site (e.g. the construct of FIG. 1A) (Hepatitis B virus (subtype not stated for the construct); Hepatitis B virus (subtype not stated))
[3] = target: purified HBs antigen particle produced from an HBV sequence construct including the pre-S2 region with none of the pre-S1 region and deletions upstream of the S ATG and downstream of the S ATG through the XBaI site, and the S region with deletion of the S ATG (e.g. the construct of FIG. 2A) (Hepatitis B virus (subtype not stated for the construct); Hepatitis B virus (subtype not stated))
[4] = target: purified HBs antigen particle produced from an HBV sequence construct including the pre-S2 region with none of the pre-S1 region and deletions upstream of the S ATG and the S region with deletion of the S ATG (e.g., the construct of FIG. 7B) (Hepatitis B virus (subtype not stated for the construct); Hepatitis B virus (subtype not stated))
[5] = target: purified HBs antigen particles produced by construct including the entire pre-S1-pre-S2-S region under control of the LTR region of rous sarcoma virus, with additional cotransfection with S (FIG. 13) (Hepatitis B virus (subtype not stated))

Work on anti-pre-S1 monoclonal antibody MA 18/7 yielded an E492 [1] of 1.27, an E492 [2] of 0.839 and an E492 [3] of 0. For the same substance, the E492 [4] was 0 and the E492 [5] was 0.125.
